Reference: paper PMC2756588

T1: Bbc1, P47068
T1 sequence (P47068 1-78, looked up): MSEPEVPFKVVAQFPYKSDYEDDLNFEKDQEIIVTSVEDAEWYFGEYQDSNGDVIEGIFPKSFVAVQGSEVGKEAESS

T2: Lsb3, P43603
T2 sequence (P43603 385-451, looked up): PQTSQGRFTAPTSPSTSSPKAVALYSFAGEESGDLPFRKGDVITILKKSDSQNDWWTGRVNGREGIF

T3: Pex13, P80667
T3 sequence (P80667 295-386, looked up): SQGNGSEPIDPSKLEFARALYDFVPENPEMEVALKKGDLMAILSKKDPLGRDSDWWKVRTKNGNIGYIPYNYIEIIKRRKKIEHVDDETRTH

T4: Sla1-2, P32790
T4 sequence (P32790 60-140, looked up): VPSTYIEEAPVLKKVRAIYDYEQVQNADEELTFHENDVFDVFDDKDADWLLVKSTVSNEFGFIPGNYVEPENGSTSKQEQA

T5: Lsb1, P53281
T5 sequence (P53281 45-122, looked up): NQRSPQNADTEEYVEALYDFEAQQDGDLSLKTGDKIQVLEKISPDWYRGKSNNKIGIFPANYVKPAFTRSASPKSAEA

T6: Lsb4, P32793
T6 sequence (P32793 402-468, looked up): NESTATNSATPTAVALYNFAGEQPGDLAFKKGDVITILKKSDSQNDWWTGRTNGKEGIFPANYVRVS

T7: Myo5, Q04439
T7 sequence (Q04439 1072-1160, looked up): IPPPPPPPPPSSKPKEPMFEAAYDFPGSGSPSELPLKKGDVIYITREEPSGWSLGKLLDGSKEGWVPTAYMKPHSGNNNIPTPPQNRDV

T8: Nbp2, Q12163
T8 sequence (Q12163 103-180, looked up): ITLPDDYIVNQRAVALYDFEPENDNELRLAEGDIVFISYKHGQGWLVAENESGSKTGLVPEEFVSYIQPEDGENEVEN

T9: Hse1, P38753
T9 sequence (P38753 208-285, looked up): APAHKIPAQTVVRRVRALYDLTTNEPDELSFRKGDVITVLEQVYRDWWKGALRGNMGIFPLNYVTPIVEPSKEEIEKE

T10: Bzz1-2, P38822
T10 sequence (P38822 568-633, looked up): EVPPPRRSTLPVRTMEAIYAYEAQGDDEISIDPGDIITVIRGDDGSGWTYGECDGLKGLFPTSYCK

T11: Boi2, P39969
T11 sequence (P39969 32-116, looked up): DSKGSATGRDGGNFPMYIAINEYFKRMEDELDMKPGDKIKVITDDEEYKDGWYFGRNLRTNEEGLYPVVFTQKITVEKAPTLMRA

T12: Cyk3, Q07533
T12 sequence (Q07533 1-83, looked up): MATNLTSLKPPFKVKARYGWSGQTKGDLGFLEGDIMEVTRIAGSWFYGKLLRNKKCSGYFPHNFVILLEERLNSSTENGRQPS

T13: Boi1, P38041
T13 sequence (P38041 1-86, looked up): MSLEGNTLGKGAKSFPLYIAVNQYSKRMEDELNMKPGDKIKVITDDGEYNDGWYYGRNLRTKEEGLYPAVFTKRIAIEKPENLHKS

T14: Abp1, P15891
T14 sequence (P15891 535-592, looked up): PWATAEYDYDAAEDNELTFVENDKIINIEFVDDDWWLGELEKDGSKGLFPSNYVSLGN

T15: Pin3, Q06449
T15 sequence (Q06449 53-122, looked up): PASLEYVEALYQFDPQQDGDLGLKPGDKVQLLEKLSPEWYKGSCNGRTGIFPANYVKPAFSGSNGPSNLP

T16: Bzz1-1, P38822
T16 sequence (P38822 478-572, looked up): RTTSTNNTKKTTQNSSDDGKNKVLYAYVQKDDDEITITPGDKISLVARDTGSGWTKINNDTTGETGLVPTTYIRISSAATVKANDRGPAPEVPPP

T17: Cdc25, P04821
T17 sequence (P04821 50-136, looked up): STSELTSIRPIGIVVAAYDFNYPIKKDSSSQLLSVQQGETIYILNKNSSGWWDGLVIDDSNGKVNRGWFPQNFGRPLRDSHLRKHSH

T18: Fus1, P11710
T18 sequence (P11710 432-512, looked up): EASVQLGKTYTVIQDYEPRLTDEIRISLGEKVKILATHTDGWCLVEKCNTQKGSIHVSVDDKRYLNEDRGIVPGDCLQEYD

T19: Hof1, Q05080
T19 sequence (Q05080 590-669, looked up): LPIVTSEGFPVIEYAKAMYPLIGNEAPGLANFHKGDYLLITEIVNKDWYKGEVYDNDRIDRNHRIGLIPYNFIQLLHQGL

T20: Bud14, P27637
T20 sequence (P27637 247-328, looked up): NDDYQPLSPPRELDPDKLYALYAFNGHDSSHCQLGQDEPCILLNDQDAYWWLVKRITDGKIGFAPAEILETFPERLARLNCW

T21: Sla1-3, P32790
T21 sequence (P32790 344-424, looked up): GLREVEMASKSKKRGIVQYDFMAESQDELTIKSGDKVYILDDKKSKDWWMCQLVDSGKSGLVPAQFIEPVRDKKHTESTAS

B1: unnamed (peptide)
chain: VQQDSLPKLPFRSWG
B2: unnamed (peptide)
chain: QFDLKMPSKPIHNLK
B3: unnamed (peptide)
chain: APERAVPILPPRNNV

Each binder was assayed against T1, Bbc1, P47068 (assay: SPOT array). Settings: median of control spots 796.

| SPOT intensity | Binder |
| --- | --- |
| 5 | B1 |
| 0 | B2 |
| 13 | B3 |

What follows are binders tested against T2, Lsb3, P43603 (assay: SPOT array). Settings: median of control spots 406.

| SPOT intensity | Binder |
| --- | --- |
| 646 | B1 |
| 9 | B2 |
| 771 | B3 |

What follows are binders tested against T3, Pex13, P80667 (assay: SPOT array). Settings: median of control spots 1341.

| SPOT intensity | Binder |
| --- | --- |
| 490 | B1 |
| 95 | B2 |
| 536 | B3 |

The binders below were run against T4, Sla1-2, P32790 (assay: SPOT array). Settings: median of control spots 712.

| SPOT intensity | Binder |
| --- | --- |
| 0 | B1 |
| 2 | B2 |
| 0 | B3 |

Each binder was assayed against Bem1-1, P29366 (assay: SPOT array). Settings: median of control spots 4282.
Sequence of Bem1-1, P29366 (P29366 55-141): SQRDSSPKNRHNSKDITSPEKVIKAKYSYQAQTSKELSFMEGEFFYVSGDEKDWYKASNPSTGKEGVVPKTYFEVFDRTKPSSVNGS

| SPOT intensity | Binder |
| --- | --- |
| 0 | B1 |
| 0 | B2 |
| 1 | B3 |

What follows are binders tested against Bem1-2, P29366 (assay: SPOT array). Settings: median of control spots 4347.
Sequence of Bem1-2, P29366 (P29366 139-227): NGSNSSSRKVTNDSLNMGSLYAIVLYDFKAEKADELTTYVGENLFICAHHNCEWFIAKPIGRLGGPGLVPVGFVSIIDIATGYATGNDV

| SPOT intensity | Binder |
| --- | --- |
| 0 | B1 |
| 0 | B2 |
| 2 | B3 |

What follows are binders tested against Rvs167, P39743 (assay: SPOT array). Settings: median of control spots 2707.
Sequence of Rvs167, P39743 (P39743 419-482): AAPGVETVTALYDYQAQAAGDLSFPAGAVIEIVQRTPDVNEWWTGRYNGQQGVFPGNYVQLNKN

| SPOT intensity | Binder |
| --- | --- |
| 944 | B1 |
| 6 | B2 |
| 1340 | B3 |

These binders were tested against T5, Lsb1, P53281 (assay: SPOT array). Settings: median of control spots 388.

| SPOT intensity | Binder |
| --- | --- |
| 399 | B1 |
| 1 | B2 |
| 290 | B3 |

These binders were tested against T6, Lsb4, P32793 (assay: SPOT array). Settings: median of control spots 397.

| SPOT intensity | Binder |
| --- | --- |
| 1310 | B1 |
| 27 | B2 |
| 1220 | B3 |

The binders below were run against T7, Myo5, Q04439 (assay: SPOT array). Settings: median of control spots 471.

| SPOT intensity | Binder |
| --- | --- |
| 0 | B1 |
| 29 | B2 |
| 0 | B3 |

These binders were tested against GST (assay: SPOT array). Settings: median of control spots 978.

| SPOT intensity | Binder |
| --- | --- |
| 0 | B1 |
| 0 | B2 |
| 0 | B3 |

Each binder was assayed against T8, Nbp2, Q12163 (assay: SPOT array). Settings: median of control spots 357.

| SPOT intensity | Binder |
| --- | --- |
| 0 | B1 |
| 0 | B2 |
| 0 | B3 |

These binders were tested against T9, Hse1, P38753 (assay: SPOT array). Settings: median of control spots 1727.

| SPOT intensity | Binder |
| --- | --- |
| 0 | B1 |
| 0 | B2 |
| 1 | B3 |

These binders were tested against T10, Bzz1-2, P38822 (assay: SPOT array). Settings: median of control spots 4538.

| SPOT intensity | Binder |
| --- | --- |
| 0 | B1 |
| 0 | B2 |
| 0 | B3 |

The binders below were run against T11, Boi2, P39969 (assay: SPOT array). Settings: median of control spots 1161.

| SPOT intensity | Binder |
| --- | --- |
| 2 | B1 |
| 2 | B2 |
| 1 | B3 |

These binders were tested against T12, Cyk3, Q07533 (assay: SPOT array). Settings: median of control spots 1451.

| SPOT intensity | Binder |
| --- | --- |
| 0 | B1 |
| 0 | B2 |
| 0 | B3 |

What follows are binders tested against T13, Boi1, P38041 (assay: SPOT array). Settings: median of control spots 1162.

| SPOT intensity | Binder |
| --- | --- |
| 0 | B1 |
| 0 | B2 |
| 0 | B3 |

What follows are binders tested against T14, Abp1, P15891 (assay: SPOT array). Settings: median of control spots 935.

| SPOT intensity | Binder |
| --- | --- |
| 0 | B1 |
| 41 | B2 |
| 4 | B3 |

The binders below were run against T15, Pin3, Q06449 (assay: SPOT array). Settings: median of control spots 2171.

| SPOT intensity | Binder |
| --- | --- |
| 7 | B1 |
| 68 | B2 |
| 13 | B3 |

Each binder was assayed against T16, Bzz1-1, P38822 (assay: SPOT array). Settings: median of control spots 4446.

| SPOT intensity | Binder |
| --- | --- |
| 0 | B1 |
| 0 | B2 |
| 1 | B3 |

Each binder was assayed against T17, Cdc25, P04821 (assay: SPOT array). Settings: median of control spots 969.

| SPOT intensity | Binder |
| --- | --- |
| 0 | B1 |
| 1 | B2 |
| 1 | B3 |

The binders below were run against Sho1, P40073 (assay: SPOT array). Settings: median of control spots 1148.
Sequence of Sho1, P40073 (P40073 287-367): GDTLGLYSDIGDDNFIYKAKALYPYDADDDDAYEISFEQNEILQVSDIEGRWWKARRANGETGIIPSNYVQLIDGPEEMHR

| SPOT intensity | Binder |
| --- | --- |
| 66 | B1 |
| 7 | B2 |
| 7 | B3 |

The binders below were run against T18, Fus1, P11710 (assay: SPOT array). Settings: median of control spots 1200.

| SPOT intensity | Binder |
| --- | --- |
| 1 | B1 |
| 0 | B2 |
| 0 | B3 |

What follows are binders tested against T19, Hof1, Q05080 (assay: SPOT array). Settings: median of control spots 4086.

| SPOT intensity | Binder |
| --- | --- |
| 1570 | B1 |
| 0 | B2 |
| 63 | B3 |

The binders below were run against T20, Bud14, P27637 (assay: SPOT array). Settings: median of control spots 956.

| SPOT intensity | Binder |
| --- | --- |
| 0 | B1 |
| 0 | B2 |
| 0 | B3 |

Each binder was assayed against Myo3, P36006 (assay: SPOT array). Settings: median of control spots 468.

| SPOT intensity | Binder |
| --- | --- |
| 0 | B1 |
| 34 | B2 |
| 66 | B3 |

Each binder was assayed against T21, Sla1-3, P32790 (assay: SPOT array). Settings: median of control spots 5475.

| SPOT intensity | Binder |
| --- | --- |
| 0 | B1 |
| 0 | B2 |
| 0 | B3 |
